Test results reported in the supplement of paper PMC10126150.
± gives the standard deviation of the averaged measurements.

Tested on: ATP
Test: switch fluorescence ratio, 500 uM ATP over buffer (Cy3 cluster intensity, sum of 5 cycles each) (fold (ratio)); higher = stronger signal-on switching upon ATP binding; sequences stand for … in TCGTCGGCAGCGTCAGATGTGTATAAGAGACAGTTTTTTTTTTTTTTTTTTTTTTTTT…TC
Conditions: aptamer strand: ATP DNA aptamer (quencher-CACCTGGGGGAGTATTGCGGAGGAAGG + anchor), 100 nM annealed; ATP concentration: 500 uM
In short: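 Clusters with intensities outside 100-1000 RFU were excluded. The remaining Cy3-labelled switching-strand clusters on a modified Illumina MiSeq flow-cell had been annealed to 100 nM quencher-labelled ATP aptamer and imaged in selection buffer, then after 15 min with 500 uM ATP at 22 °C, for five cycles separated by NaOH stripping and re-annealing. The fluorescence ratio, averaged per switch-domain sequence, is each cluster's summed target-cycle Cy3 intensity over its summed buffer-cycle Cy3 intensity.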
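Note: ATP exposure 15 min at 22 °C before imaging.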

ATGGAGTTG
switch fluorescence ratio: 0.994 ± 0.024

ATGGATACGG
switch fluorescence ratio: 1.02 ± 0.011

ATGGATAGCG
switch fluorescence ratio: 0.968 ± 0.074

ATGGATCTCA
switch fluorescence ratio: 1 ± 0.0063

ATGGATGACA
switch fluorescence ratio: 0.951 ± 0.052

ATGGATTCTG
switch fluorescence ratio: 1.07 ± 0.091

ATGGATTTGT
switch fluorescence ratio: 1.01 ± 0.021

ATGGCAACCG
switch fluorescence ratio: 1.02 ± 0.012

ATGGCAAGGT
switch fluorescence ratio: 1.02 ± 0.065

ATGGCAGACT
switch fluorescence ratio: 1.02 ± 0.052

ATGGCAGCTG
switch fluorescence ratio: 0.9949 ± 0.0095

ATGGCCGGGT
switch fluorescence ratio: 1.01 ± 0.013

ATGGCCGGTT
switch fluorescence ratio: 1.04 ± 0.013

ATGGCGACGA
switch fluorescence ratio: 1.027 ± 0.0095

ATGGCGAGGG
switch fluorescence ratio: 0.989 ± 0.017

ATGGCGATCA
switch fluorescence ratio: 0.999 ± 0.0078

ATGGCTTGGT
switch fluorescence ratio: 0.99 ± 0.025

ATGGGAAGGC
switch fluorescence ratio: 0.983 ± 0.026

ATGGGACAGT
switch fluorescence ratio: 0.988 ± 0.05

ATGGGACGGC
switch fluorescence ratio: 0.998 ± 0.032

ATGGGAGGGC
switch fluorescence ratio: 0.9698 ± 0.0059

ATGGGAGGTG
switch fluorescence ratio: 1.01 ± 0.039

ATGGGATGCG
switch fluorescence ratio: 0.981 ± 0.016

ATGGGCAGCT
switch fluorescence ratio: 1.02 ± 0.011

ATGGGCCGGG
switch fluorescence ratio: 0.9955 ± 0.0074

ATGGGCTAGA
switch fluorescence ratio: 0.9731 ± 0.0052

ATGGGCTGGG
switch fluorescence ratio: 0.997 ± 0.035

ATGGGCTTAC
switch fluorescence ratio: 1.2301 ± 0.00072

ATGGGGAATA
switch fluorescence ratio: 1.03 ± 0.0059

ATGGGGCATA
switch fluorescence ratio: 1.01 ± 0.045

ATGGGGGAA
switch fluorescence ratio: 0.997 ± 0.042

ATGGGGGCAC
switch fluorescence ratio: 0.971 ± 0.032

ATGGGGGGCA
switch fluorescence ratio: 0.971 ± 0.025

ATGGGGGGT
switch fluorescence ratio: 0.992 ± 0.028

ATGGGGGGTT
switch fluorescence ratio: 1.01 ± 0.043

ATGGGGGTAG
switch fluorescence ratio: 1.01 ± 0.048

ATGGGGTGGC
switch fluorescence ratio: 0.9977 ± 0.0017

ATGGGGTGGG
switch fluorescence ratio: 0.985 ± 0.026

ATGGGGTGTG
switch fluorescence ratio: 1 ± 0.018

ATGGGTACGG
switch fluorescence ratio: 1.02 ± 0.029

ATGGGTGAGT
switch fluorescence ratio: 1.002 ± 0.0086

ATGGGTGCCT
switch fluorescence ratio: 1.03 ± 0.023

ATGGGTGTGC
switch fluorescence ratio: 1 ± 0.034

ATGGGTTAGC
switch fluorescence ratio: 0.998 ± 0.011

ATGGGTTCAG
switch fluorescence ratio: 0.969 ± 0.0045

ATGGGTTTAG
switch fluorescence ratio: 0.994 ± 0.016

ATGGTAAGT
switch fluorescence ratio: 0.9815 ± 0.0057

ATGGTAGTAA
switch fluorescence ratio: 1.01 ± 0.024

ATGGTAGTGG
switch fluorescence ratio: 0.995 ± 0.026

ATGGTATATT
switch fluorescence ratio: 1 ± 0.033

ATGGTCAGGT
switch fluorescence ratio: 1.01 ± 0.019

ATGGTCGGGA
switch fluorescence ratio: 0.986 ± 0.026

ATGGTCGTCG
switch fluorescence ratio: 0.9939 ± 0.0035

ATGGTCGTCT
switch fluorescence ratio: 0.971 ± 0.027

ATGGTCTGCC
switch fluorescence ratio: 0.974 ± 0.02

ATGGTCTGCG
switch fluorescence ratio: 1 ± 0.018

ATGGTGAAGG
switch fluorescence ratio: 1.01 ± 0.066

ATGGTGGTGG
switch fluorescence ratio: 1.011 ± 0.0062

ATGGTGTAGG
switch fluorescence ratio: 1.01 ± 0.012

ATGGTGTATC
switch fluorescence ratio: 0.981 ± 0.026

ATGGTTAAAT
switch fluorescence ratio: 0.976 ± 0.033

ATGGTTACGG
switch fluorescence ratio: 1 ± 0.035

ATGGTTGTCA
switch fluorescence ratio: 1.03 ± 0.015

ATGGTTTATA
switch fluorescence ratio: 0.977 ± 0.045

ATGGTTTGTA
switch fluorescence ratio: 0.9744 ± 0.0088

ATGTAAACGC
switch fluorescence ratio: 1.03 ± 0.038

ATGTAACCGT
switch fluorescence ratio: 1.01 ± 0.012

ATGTAATAGC
switch fluorescence ratio: 0.989 ± 0.022

ATGTAATAGG
switch fluorescence ratio: 0.995 ± 0.046

ATGTAATGAT
switch fluorescence ratio: 1.02 ± 0.018

ATGTACGAGA
switch fluorescence ratio: 1.06 ± 0.019

ATGTACGTAG
switch fluorescence ratio: 1.03 ± 0.025

ATGTACGTTT
switch fluorescence ratio: 0.9983 ± 0.0007

ATGTAGGGAG
switch fluorescence ratio: 0.998 ± 0.017

ATGTAGGGG
switch fluorescence ratio: 1 ± 0.022

ATGTAGTACG
switch fluorescence ratio: 1 ± 0.02

ATGTAGTGCG
switch fluorescence ratio: 0.99 ± 0.021

ATGTAGTTGG
switch fluorescence ratio: 1 ± 0.016

ATGTAGTTGT
switch fluorescence ratio: 0.979 ± 0.041

ATGTATCACT
switch fluorescence ratio: 0.984 ± 0.015

ATGTATCATG
switch fluorescence ratio: 1 ± 0.033

ATGTATCGGC
switch fluorescence ratio: 1.01 ± 0.06

ATGTATCGGG
switch fluorescence ratio: 0.975 ± 0.036

ATGTATTAAG
switch fluorescence ratio: 0.98 ± 0.015

ATGTATTCAG
switch fluorescence ratio: 0.96694 ± 0.00025

ATGTATTCTT
switch fluorescence ratio: 0.987 ± 0.052

ATGTCAGGGA
switch fluorescence ratio: 0.994 ± 0.019

ATGTCCTATG
switch fluorescence ratio: 1.003 ± 0.0066

ATGTCGACTA
switch fluorescence ratio: 1.02 ± 0.021

ATGTCGTGTC
switch fluorescence ratio: 1 ± 0.013

ATGTCTGGGA
switch fluorescence ratio: 1 ± 0.037

ATGTCTGTAA
switch fluorescence ratio: 1 ± 0.013

ATGTGAAAGA
switch fluorescence ratio: 0.982 ± 0.011

ATGTGAGAGG
switch fluorescence ratio: 0.991 ± 0.022

ATGTGAGTTA
switch fluorescence ratio: 0.951 ± 0.039

ATGTGATATG
switch fluorescence ratio: 0.994 ± 0.042

ATGTGATGCT
switch fluorescence ratio: 1.012 ± 0.0044

ATGTGCAATA
switch fluorescence ratio: 1.94 ± 0.082

ATGTGCGATT
switch fluorescence ratio: 1 ± 0.037

ATGTGCGGGC
switch fluorescence ratio: 1.025 ± 0.0063

ATGTGCTCTA
switch fluorescence ratio: 0.9692 ± 0.0047

ATGTGCTCTC
switch fluorescence ratio: 0.9817 ± 0.0082

ATGTGCTGCC
switch fluorescence ratio: 0.983 ± 0.019

ATGTGCTGTT
switch fluorescence ratio: 0.99802 ± 8.7e-05

ATGTGGAAGT
switch fluorescence ratio: 0.97 ± 0.043

ATGTGGACCT
switch fluorescence ratio: 1.26 ± 0.065

ATGTGGATTC
switch fluorescence ratio: 1.02 ± 0.036

ATGTGGATTT
switch fluorescence ratio: 0.988 ± 0.023

ATGTGGCTCT
switch fluorescence ratio: 0.9984 ± 0.0069

ATGTGGGGGT
switch fluorescence ratio: 0.994 ± 0.029

ATGTGGTAAT
switch fluorescence ratio: 0.984 ± 0.024

ATGTGGTACT
switch fluorescence ratio: 0.979 ± 0.027

ATGTGGTCAT
switch fluorescence ratio: 1.008 ± 0.0065

ATGTGGTTAC
switch fluorescence ratio: 1.01 ± 0.048

ATGTGTACCC
switch fluorescence ratio: 1.04 ± 0.016

ATGTGTTACG
switch fluorescence ratio: 1.05 ± 0.012

ATGTGTTCGG
switch fluorescence ratio: 0.98 ± 0.0064

ATGTGTTGTG
switch fluorescence ratio: 0.98 ± 0.021

ATGTGTTTGC
switch fluorescence ratio: 0.99 ± 0.053

ATGTTAAGAG
switch fluorescence ratio: 0.9766 ± 0.0089

ATGTTAAGTC
switch fluorescence ratio: 0.97 ± 0.049

ATGTTAGGGG
switch fluorescence ratio: 0.981 ± 0.041

ATGTTAGGGT
switch fluorescence ratio: 0.988 ± 0.033

ATGTTAGTCG
switch fluorescence ratio: 1.01 ± 0.014

ATGTTATACT
switch fluorescence ratio: 1.02 ± 0.028

ATGTTATAGT
switch fluorescence ratio: 0.98 ± 0.04

ATGTTCGGCG
switch fluorescence ratio: 1.01 ± 0.036

ATGTTCGTAG
switch fluorescence ratio: 0.989 ± 0.015

ATGTTTATCG
switch fluorescence ratio: 0.97 ± 0.016

ATGTTTATTT
switch fluorescence ratio: 0.998 ± 0.041

ATGTTTCAGT
switch fluorescence ratio: 0.9982 ± 0.0021

ATGTTTCGGT
switch fluorescence ratio: 0.9918 ± 0.0073

ATGTTTTCTG
switch fluorescence ratio: 0.968 ± 0.04

ATGTTTTGAG
switch fluorescence ratio: 0.983 ± 0.043

ATGTTTTGTA
switch fluorescence ratio: 1 ± 0.0053

ATGTTTTTTC
switch fluorescence ratio: 0.977 ± 0.037

ATTAAAACTT
switch fluorescence ratio: 1.05 ± 0.026

ATTAAAAGGT
switch fluorescence ratio: 1 ± 0.026

ATTAAAGTTA
switch fluorescence ratio: 1.01 ± 0.013

ATTAAATGGC
switch fluorescence ratio: 1.02 ± 0.012

ATTAAATTTC
switch fluorescence ratio: 0.987 ± 0.014

ATTAAGAGGT
switch fluorescence ratio: 1.034 ± 0.0075

ATTAAGATGT
switch fluorescence ratio: 1.002 ± 0.0049

ATTAAGCTGT
switch fluorescence ratio: 1.009 ± 0.01

ATTAAGTCGC
switch fluorescence ratio: 1.01 ± 0.022

ATTAATAGCA
switch fluorescence ratio: 0.9745 ± 0.0089

ATTAATCGCT
switch fluorescence ratio: 0.9931 ± 0.0042

ATTAATCGGC
switch fluorescence ratio: 0.9735 ± 0.0033

ATTAATCTT
switch fluorescence ratio: 1.011 ± 0.0016

ATTAATTAAT
switch fluorescence ratio: 1 ± 0.034

ATTAATTGGG
switch fluorescence ratio: 1.01 ± 0.036

ATTACAATAG
switch fluorescence ratio: 1.095 ± 0.0077

ATTACGCCA
switch fluorescence ratio: 1.17 ± 0.11

ATTACGGCAT
switch fluorescence ratio: 1.18 ± 0.047

ATTACGGTCA
switch fluorescence ratio: 1.02 ± 0.038

ATTAGAAGAC
switch fluorescence ratio: 1 ± 0.027

ATTAGAATTA
switch fluorescence ratio: 0.982 ± 0.062

ATTAGATGTT
switch fluorescence ratio: 0.9635 ± 0.0029

ATTAGCAATG
switch fluorescence ratio: 1.354 ± 0.006

ATTAGCGTCA
switch fluorescence ratio: 0.991 ± 0.018

ATTAGCTCGC
switch fluorescence ratio: 0.97 ± 0.023

ATTAGCTTCC
switch fluorescence ratio: 3 ± 0.33

ATTAGGAGTC
switch fluorescence ratio: 0.999 ± 0.012

ATTAGGGAAT
switch fluorescence ratio: 0.976 ± 0.04

ATTAGGGTTA
switch fluorescence ratio: 0.9928 ± 0.0088

ATTAGGGTTC
switch fluorescence ratio: 1.44 ± 0.47

ATTAGTAGAA
switch fluorescence ratio: 0.995 ± 0.016

ATTAGTAGGT
switch fluorescence ratio: 0.976 ± 0.012

ATTAGTAGTT
switch fluorescence ratio: 0.996 ± 0.057

ATTAGTCTAT
switch fluorescence ratio: 0.988 ± 0.036

ATTAGTCTGC
switch fluorescence ratio: 0.996 ± 0.033

ATTAGTGCCG
switch fluorescence ratio: 1.04 ± 0.14

ATTATAAGGG
switch fluorescence ratio: 1.02 ± 0.056

ATTATCAGGT
switch fluorescence ratio: 1.06 ± 0.057

ATTATGATGC
switch fluorescence ratio: 0.992 ± 0.014

ATTATGATTG
switch fluorescence ratio: 0.98 ± 0.028

ATTATGCTGC
switch fluorescence ratio: 0.977 ± 0.033

ATTATGCTTT
switch fluorescence ratio: 1 ± 0.021

ATTATGGCGA
switch fluorescence ratio: 1.04 ± 0.023

ATTATGGGTC
switch fluorescence ratio: 1 ± 0.043

ATTATGGGTT
switch fluorescence ratio: 0.995 ± 0.029

ATTATGTAGG
switch fluorescence ratio: 0.988 ± 0.015

ATTATGTCGT
switch fluorescence ratio: 1 ± 0.013

ATTATGTGTC
switch fluorescence ratio: 0.959 ± 0.048

ATTATTAGTC
switch fluorescence ratio: 1.01 ± 0.022

ATTATTGCGT
switch fluorescence ratio: 1.03 ± 0.04

ATTATTTCCC
switch fluorescence ratio: 1.05 ± 0.082

ATTATTTGAC
switch fluorescence ratio: 1.08 ± 0.067

ATTATTTGGT
switch fluorescence ratio: 1.01 ± 0.014

ATTATTTTTT
switch fluorescence ratio: 1.02 ± 0.046

ATTCAAGTCA
switch fluorescence ratio: 1.03 ± 0.025

ATTCACAGTT
switch fluorescence ratio: 1.03 ± 0.033

ATTCACCCGC
switch fluorescence ratio: 1.48 ± 0.13

ATTCAGAAGA
switch fluorescence ratio: 1.07 ± 0.12

ATTCAGCCGC
switch fluorescence ratio: 1.62 ± 0.083

ATTCAGGTTT
switch fluorescence ratio: 0.992 ± 0.026

ATTCATAGGC
switch fluorescence ratio: 1 ± 0.052

ATTCATGATA
switch fluorescence ratio: 0.975 ± 0.013

ATTCATGTTG
switch fluorescence ratio: 0.996 ± 0.014

ATTCCGTATT
switch fluorescence ratio: 1.44 ± 0.68
